Target: the molecule itself
Assay: SEC; Superdex 75 10/300 GL; 200 μl of 100 μM protein loaded, before and after every ITC run, in the ITC buffers (10 mM TES pH 7.2 with 15 mM or 150 mM NaCl, with or without CaCl2)

Protein	stoichiometry N
recombinant human S100B protein, unmodified (S100BSH) (natural protein, UniProt P04271 1-92, looked up, S100B protein, human, recombinant; Non-covalent homodimer; source: E. coli bacterial culture, purified (semi-preparative HPLC, C18)) MSELEKAMVALIDVFHQYSGREGDKHKLKKSELKELINNELSHFLEEIKEQEVVDKVMETLDNDGDGECDFQEFMAFVAMVTTACHEFFEHE	2
recombinant human S100B protein, S-nitrosylated at Cys84 (S100BSNO) (natural protein, UniProt P04271 1-92, looked up, S-nitrosylated cysteine (SNO) at Cys84, S100B protein, human, recombinant, chemically S-nitrosylated at Cys84; Non-covalent homodimer; also called S100BNO; S-nitrosylated S100B; source: E. coli, chemically S-nitrosylated, purified (semi-preparative HPLC, C18)) MSELEKAMVALIDVFHQYSGREGDKHKLKKSELKELINNELSHFLEEIKEQEVVDKVMETLDNDGDGECDFQEFMAFVAMVTTACHEFFEHE	2
